# Data taken from US20090118184A1 (UNIVERSITY OF ROCHESTER, published 2009).
# Changes are numbered by the printed parent chain.
# T1: factor VIIIa A1/A3C1C2 dimer, R282A (human, UniProt P00451 20-391; P00451 1709-2351)
# T1 chain 1: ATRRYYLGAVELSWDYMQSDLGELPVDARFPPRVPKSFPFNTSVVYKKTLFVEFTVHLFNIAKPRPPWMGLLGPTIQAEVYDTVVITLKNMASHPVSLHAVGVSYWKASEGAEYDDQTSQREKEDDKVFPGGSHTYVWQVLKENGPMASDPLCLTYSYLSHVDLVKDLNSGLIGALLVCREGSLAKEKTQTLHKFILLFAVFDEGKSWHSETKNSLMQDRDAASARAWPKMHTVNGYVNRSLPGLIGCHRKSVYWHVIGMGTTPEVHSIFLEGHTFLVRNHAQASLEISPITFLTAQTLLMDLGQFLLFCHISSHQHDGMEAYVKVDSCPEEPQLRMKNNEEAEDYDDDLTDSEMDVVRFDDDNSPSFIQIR
# T1 chain 2: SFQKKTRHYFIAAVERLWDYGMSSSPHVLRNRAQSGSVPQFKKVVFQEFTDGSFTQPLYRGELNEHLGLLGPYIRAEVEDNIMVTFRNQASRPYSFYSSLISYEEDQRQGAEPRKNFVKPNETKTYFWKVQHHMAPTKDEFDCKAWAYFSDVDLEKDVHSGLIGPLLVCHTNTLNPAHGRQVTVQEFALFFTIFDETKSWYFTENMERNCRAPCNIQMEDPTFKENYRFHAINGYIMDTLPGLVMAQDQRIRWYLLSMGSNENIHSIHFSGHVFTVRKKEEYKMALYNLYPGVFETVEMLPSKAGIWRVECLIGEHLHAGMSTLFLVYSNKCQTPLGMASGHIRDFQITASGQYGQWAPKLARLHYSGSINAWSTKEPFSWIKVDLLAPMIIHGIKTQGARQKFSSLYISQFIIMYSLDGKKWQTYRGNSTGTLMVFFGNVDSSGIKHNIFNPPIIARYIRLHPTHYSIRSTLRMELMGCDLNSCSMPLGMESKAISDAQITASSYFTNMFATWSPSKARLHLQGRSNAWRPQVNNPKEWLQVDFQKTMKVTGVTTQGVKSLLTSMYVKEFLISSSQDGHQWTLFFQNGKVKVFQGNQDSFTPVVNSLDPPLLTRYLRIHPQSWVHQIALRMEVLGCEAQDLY
# T2: factor VIIIa A1/A3C1C2 dimer, S313A (human, UniProt P00451 20-391; P00451 1709-2351)
# T2 chain 1: T1 chain 1 with A282R, S313A
# T2 chain 2: T1 chain 2
# T3: factor VIIIa A1/A3C1C2 dimer, D1795A (human, UniProt P00451 20-391; P00451 1709-2351)
# T3 sequence 1: T1 chain 1 with A282R
# T3 sequence 2: T1 chain 2 with D106A
# T4: factor VIIIa A1/A3C1C2 dimer, E287A (human, UniProt P00451 20-391; P00451 1709-2351)
# T4 chain 1: T1 chain 1 with A282R, E287A
# T4 chain 2: T1 chain 2
# B1: factor VIIIa A2 subunit, wild type (other)
# chain: SVAKKHPKTWVHYIAAEEEDWDYAPLVLAPDDRSYKSQYLNNGPQRIGRKYKKVRFMAYTDETFKTREAIQHESGILGPLLYGEVGDTLLIIFKNQASRPYNIYPHGITDVRPLYSRRLPKGVKHLKDFPILPGEIFKYKWTVTVEDGPTKSDPRCLTRYYSSFVNMERDLASGLIGPLLICYKESVDQRGNQIMSDKRNVILFSVFDENRSWYLTENIQRFLPNPAGVQLEDPEFQASNIMHSINGYVFDSLQLSVCLHEVAYWYILSIGAQTDFLSVFFSGYTFKHKMVYEDTLTLFPFSGETVFMSMENPGLWILGCHNSDFRNRGMTALLKVSSCDKNTGDYYEDSYEDISAYLLSKNNAIEPR
# Tests used:
# Assay in all cases: cell-based or functional assay
# [1] = molecular target: T1, factor VIIIa A1/A3C1C2 dimer, R282A
# [2] = molecular target: T2, factor VIIIa A1/A3C1C2 dimer, S313A
# [3] = molecular target: T3, factor VIIIa A1/A3C1C2 dimer, D1795A
# [4] = molecular target: T4, factor VIIIa A1/A3C1C2 dimer, E287A
binder,measurement,setting,value
B1,"Factor VIIIa decay rate relative to wild type, FIXa (+)",[1],41.7 relative to wild type
same,"Factor VIIIa decay rate relative to wild type, FIXa (-)",[1],10.7 relative to wild type
same,"Factor VIIIa decay rate, FIXa (+)",[1],0.471 min⁻¹
same,"Factor VIIIa decay rate, FIXa (-)",[1],0.674 min⁻¹
same,"Factor VIIIa decay rate relative to wild type, FIXa (+)",[2],1.86 relative to wild type
same,"Factor VIIIa decay rate, FIXa (+)",[2],0.021 min⁻¹
same,"Factor VIIIa decay rate relative to wild type, FIXa (+)",[3],2.11 relative to wild type
same,"Factor VIIIa decay rate, FIXa (+)",[3],0.0238 min⁻¹
same,"Factor VIIIa decay rate relative to wild type, FIXa (+)",[4],0.78 relative to wild type
same,"Factor VIIIa decay rate, FIXa (+)",[4],0.0088 min⁻¹
